Here are results for five molecules from publication PMC6317261, “Functional dissection of the developmentally restricted BEN domain chromatin boundary factor Insensitive” (Epigenetics & Chromatin, 2019).

A word on the stoichiometry N: it is the number of molecules, sites or subunits per partner or assembly.

Data set [1] deals with the molecule itself. The data set can be described thus: SEC; Superdex 200 10/300 column; 500 uL of the eluted protein loaded; sizes estimated against Bio-Rad standards (1.35 to 670 kDa).
Data set [2] concerns the molecule itself. Put plainly: cross-linking; glutaraldehyde, 10 min at room temperature in PBS with 1 mM beta-mercaptoethanol; protein adjusted to 10 uM; SDS-PAGE, silver staining.
Data set [3] addresses T1, HT:F-Insv (UniProt Q8SYK5 1-376).
T1 sequence: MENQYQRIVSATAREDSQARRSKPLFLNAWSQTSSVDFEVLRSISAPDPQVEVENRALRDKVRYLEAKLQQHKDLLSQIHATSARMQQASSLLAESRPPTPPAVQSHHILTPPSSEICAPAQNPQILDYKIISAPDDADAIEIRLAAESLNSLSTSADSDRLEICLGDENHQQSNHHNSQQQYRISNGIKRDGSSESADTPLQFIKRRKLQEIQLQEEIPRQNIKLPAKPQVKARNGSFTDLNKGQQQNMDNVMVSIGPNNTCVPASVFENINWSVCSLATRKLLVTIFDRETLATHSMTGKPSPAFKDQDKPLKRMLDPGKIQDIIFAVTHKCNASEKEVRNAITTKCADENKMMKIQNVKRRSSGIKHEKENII
Put plainly: EMSA; at least three shifts; EMSA: 25 mM Tris-HCl pH 7.4, 100 mM KCl, 1 mM EDTA, 0.1 mM DTT, 0.1 mM PMSF, 0.03 mg/mL BSA, 10% glycerol, 0.5% Triton X-100, 0.25 mg/mL poly(dI-dC), 30 min room temperature. The following applies: protein: recombinant; tags: N-terminal His-Thioredoxin; label: 5'-32P; blunt. On the technique in general: A gel shift assay detects complexes by their altered migration in electrophoresis.

For data set [4], the target named is T2, HS:C-BEN (UniProt Q8SYK5 210-376).
T2 sequence: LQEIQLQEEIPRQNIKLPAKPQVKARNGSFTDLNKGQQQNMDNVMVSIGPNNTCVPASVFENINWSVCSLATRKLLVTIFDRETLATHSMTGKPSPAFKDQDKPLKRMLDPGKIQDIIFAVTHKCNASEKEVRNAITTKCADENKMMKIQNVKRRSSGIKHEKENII
Put plainly: EMSA; multiple shifts, at lower protein than for P2; EMSA: 25 mM Tris-HCl pH 7.4, 100 mM KCl, 1 mM EDTA, 0.1 mM DTT, 0.1 mM PMSF, 0.03 mg/mL BSA, 10% glycerol, 0.5% Triton X-100, 0.25 mg/mL poly(dI-dC), 30 min room temperature. The following applies: protein: recombinant; tags: N-terminal His-Sumo; chain copies: 2; label: 5'-32P; blunt.

Data set [5] deals with the molecule itself. The data set can be described thus: cross-linking; EGS, increasing amounts, 10 min at room temperature in PBS with 1 mM beta-mercaptoethanol; protein adjusted to 10 uM; SDS-PAGE, silver staining.

B1: His-Sumo C-BEN (HS:C-BEN) (domain or fragment, Drosophila, UniProt Q8SYK5 210-376, looked up)
chain: LQEIQLQEEIPRQNIKLPAKPQVKARNGSFTDLNKGQQQNMDNVMVSIGPNNTCVPASVFENINWSVCSLATRKLLVTIFDRETLATHSMTGKPSPAFKDQDKPLKRMLDPGKIQDIIFAVTHKCNASEKEVRNAITTKCADENKMMKIQNVKRRSSGIKHEKENII
notes: Insensitive (Insv), Drosophila; C domain plus BEN domain; 'lacks amino acids 1-209'; elsewhere the C domain is said to extend from aa 209 to aa 253; about 32 kDa with the tag; source: E. coli, purified (Ni-NTA Agarose); not shown: His6, N-terminal, kept; Sumo, N-terminal, kept
In the case of B1, the “stoichiometry N” value in data set [1] is 2; in data set [2], 4.

B2: HT:N1-267 (domain or fragment, Drosophila, UniProt Q8SYK5 1-267, looked up)
chain: MENQYQRIVSATAREDSQARRSKPLFLNAWSQTSSVDFEVLRSISAPDPQVEVENRALRDKVRYLEAKLQQHKDLLSQIHATSARMQQASSLLAESRPPTPPAVQSHHILTPPSSEICAPAQNPQILDYKIISAPDDADAIEIRLAAESLNSLSTSADSDRLEICLGDENHQQSNHHNSQQQYRISNGIKRDGSSESADTPLQFIKRRKLQEIQLQEEIPRQNIKLPAKPQVKARNGSFTDLNKGQQQNMDNVMVSIGPNNTCVPAS
notes: source: E. coli, purified (Ni-NTA Agarose); not shown: His6, N-terminal, kept; Thioredoxin, N-terminal, kept
Consider B2, for which the “stoichiometry N” value in data set [2] is 4.

B3: HT:N1-111 (domain or fragment, Drosophila, UniProt Q8SYK5 1-111, looked up)
chain: MENQYQRIVSATAREDSQARRSKPLFLNAWSQTSSVDFEVLRSISAPDPQVEVENRALRDKVRYLEAKLQQHKDLLSQIHATSARMQQASSLLAESRPPTPPAVQSHHILT
notes: Insensitive (Insv), Drosophila, residues 1-111: includes the predicted coiled-coil domain (about 51-104); source: E. coli, purified (Ni-NTA Agarose); not shown: His6, N-terminal, kept; Thioredoxin, N-terminal, kept
Consider B3, for which, in data set [2], the “stoichiometry N” value amounted to 4.

B4: 2xPal (dsDNA)
DNA 1: CTCGAGGGGTTTCTTTCCCAATTGGAAATGCGTCCTGTCGAGGGGTTTCTTTCCCAATTGGAAATGCGTCCTGTCGACGGTATCGATAAGCTTGATATCGAATTCCTGCAGCCCGGGGATCC
DNA 2: GGATCCCCGGGCTGCAGGAATTCGATATCAAGCTTATCGATACCGTCGACAGGACGCATTTCCAATTGGGAAAGAAACCCCTCGACAGGACGCATTTCCAATTGGGAAAGAAACCCCTCGAG
With B4, the binding result in data set [3] and in data set [4] was “binds” each time.

B5: HT:N1-213 (domain or fragment, Drosophila, UniProt Q8SYK5 1-213, looked up)
chain: MENQYQRIVSATAREDSQARRSKPLFLNAWSQTSSVDFEVLRSISAPDPQVEVENRALRDKVRYLEAKLQQHKDLLSQIHATSARMQQASSLLAESRPPTPPAVQSHHILTPPSSEICAPAQNPQILDYKIISAPDDADAIEIRLAAESLNSLSTSADSDRLEICLGDENHQQSNHHNSQQQYRISNGIKRDGSSESADTPLQFIKRRKLQEI
notes: as for B2
Consider B5, for which, in data set [5], the “stoichiometry N” value amounted to 4.
